Test results: patent publication US20240219403A1, “METHODS FOR INHIBITING KRAS ONCOPROTEIN THROUGH ENHANCED GTPASE ACTIVITY” (Memorial Sloan-Kettering Cancer Center, priority 2021, published 2024)

Target: T1, KRAS^G12C (Homo sapiens, UniProt P01116, G12C)
T1 construct: endogenous in cells; host or cells: H358, H2122, H2030, SW1573 (KRAS G12C-mutant lung cancer lines, ATCC)
Experiment: GTPase assays of purified GTP-loaded KRAS^G12C incubated with GAP proteins (γ-phosphate, α-phosphate, continuous phosphate release)
Format: biochemical
Details: purified proteins
Protocol: GTP[γ^32P] hydrolysis assay. KRAS proteins (0.5 μg) were reacted with 0.04 μM GTP[γ^32P] (6000 Ci/mmol; PerkinElmer Life Sciences) in 100 μL loading buffer (50 mM HEPES, pH 7.5, 50 mM NaCl, 1 mM DTT, 0.1 mM EGTA, 10 mM EDTA, and 1 mg/mL BSA) for 10 min at 30° C. (5, 40). Loading reactions were stopped by placing on ice and adding MgCl2 to a final concentration of 20 mM. The GTPase assays were performed at 30° C. in 100 μL mixtures containing 20 nM of loaded KRAS and either hydrolysis buffer (25 mM HEPES pH 7.5, 50 mM NaCl, 1 mM DTT, 1 mM MgCl2 and 1 mg/mL BSA) alone, or in combination with WCE or purified RGS3 (0.08-0.4 μg/μL). Equimolar comparisons of NF1, RASA1 and RGS3 were carried out using the continuous hydrolysis assay (see below). Reactions were stopped at the indicated time by filtering through 0.45-μm nitrocellulose membrane filters. The filters were washed 3 times with 0.2 mL of ice-cold hydrolysis buffer, air dried, and processed by autoradiography. Reaction rates were determined by fitting an exponential curve to the data, which was normalized to the baseline value. For the determination of protein stability, the hydrolysis reactions were stopped by boiling at 100° C. for 10 min in Laemmli buffer. The samples were then subjected to SDS-PAGE followed by Coomasie staining (CBB) or immunoblotting with a His-specific antibody.
GTP[α^32P] hydrolysis assay. KRAS proteins were loaded with GTP[α^32P] (3000 Ci/mmol; PerkinElmer Life Sciences) and subjected to the hydrolysis reaction as indicated above. Upon completion of the hydrolysis reaction and immobilization of KRAS-nucleotide complexes on nitrocellulose membranes, the nucleotides were eluted by incubating with elution buffer (50 mM HEPES pH 7.5, 50 mM NaCl, 1 mM DTT, 0.1 mM EGTA, 0.1% SDS, 10 mM EDTA, 1 mM GTP and 1 mM GDP) for 3 min at 85° C. […]
Continuous hydrolysis assay (two-step detection of inorganic phosphate). […] The reaction was monitored by reading the absorbance at 360 nm every 10 to 20 s for ˜16-60 min at room temperature. […]

| effect on GTP-hydrolysis by KRAS^G12C | Molecule |
| --- | --- |
| no measurable effect | RASA1: canonical RAS-GAP (protein) MEKIMPEEEYSEFKELILQKELHVVYALSHVCGQDRTLLASILLRIFLHEKLESLLLCTLNDREISMEDEATTLFRATTLASTLMEQYMKATATQFVHHALKDSILKIMESKQSCELSPSKLEKNEDVNTNLTHLLNILSELVEKIFMASEILPPTLRYIYGCLQKSVQHKWPTNTTMRTRVVSGFVFLRLICPAILNPRMFNIISDSPSPIAARTLILVAKSVQNLANLVEFGAKEPYMEGVNPFIKSNKHRMIMFLDELGNVPELPDTTEHSRTDLSRDLAALHEICVAHSDELRTLSNERGAQQHVLKKLLAITELLQQKQNQYTKTNDVR |
| some activity | NF1: canonical RAS-GAP; recombinant NF1 GAP related domain (1198-1530aa) (protein, left off: small tags and cut ends) ETVLADRFERLVELVTMMGDQGELPIAMALANVVPCSQWDELARVLVTLFDSRHLLYQLLWNMFSKEVELADSMQTLFRGNSLASKIMTFCFKVYGATYLQKLLDPLLRIVITSSDWQHVSFEVDPTRLEPSESLEENQRNLLQMTEKFFHAIISSSSEFPPQLRSVCHCLYQATCHSLLNKATVKEKKENKKSVVSQRFPQNSIGAVGSAMFLRFINPAIVSPYEAGILDKKPPPRIERGLKLMSKILQSIANHVLFTKEEHMRPFNDFVKSNFDAARRFFLDIASDCPTSDAVNHSLSFISDGNVLALHRLLWNNQEKIGQYLSSNRDHKA |
| enhance the KRAS GTPase activity | RGS4: regulator of G protein signaling 4, RGS family member (protein) MCKGLAGLPASCLRSAKDMKHRLGFLLQKSDSCEHNSSHNKKDKVVICQRVSQEEVKKWAESLENLISHECGLAAFKAFLKSEYSEENIDFWISCEEYKKIKSPSKLSPKAKKIYNEFISVQATKEVNLDSCTREETSRNMLEPTITCFDEAQKKIFNLMEKDSYRRFLKSRFYLDLVNPSSCGAEKQKGAKSSADCASLVPQCA |
